Reference: PMC8568656

Target: DOPAL-derived αS oligomers (αS incubated with 3,4-dihydroxyphenylacetaldehyde)
Assay: SDS-PAGE of SEC fractions

stoichiometry N: 2
Substance: DOPAL-derived αS oligomers (αS incubated with 3,4-dihydroxyphenylacetaldehyde)
